The assay deals with PfPDI8 (PF3D7_0827900), 3xV5-tagged (P. falciparum (3D7)). Put plainly: co-IP.

On to “PfBiP, Hsp70 Binding immunoglobulin Protein (natural protein)”, for which the other worked out at 2 fold.

The record behind these values is publication PMC7886143.
